This note sets out measurements from article PMC6083090, “CNBP Homologues Gis2 and Znf9 Interact with a Putative G-Quadruplex-Forming 3′ Untranslated Region, Altering Polysome Association and Stress Tolerance in Cryptococcus neoformans”.

Series [1] addresses T1, rGis2 (Cryptococcus neoformans (H99), UniProt J9VQ17 1-201).
T1 sequence: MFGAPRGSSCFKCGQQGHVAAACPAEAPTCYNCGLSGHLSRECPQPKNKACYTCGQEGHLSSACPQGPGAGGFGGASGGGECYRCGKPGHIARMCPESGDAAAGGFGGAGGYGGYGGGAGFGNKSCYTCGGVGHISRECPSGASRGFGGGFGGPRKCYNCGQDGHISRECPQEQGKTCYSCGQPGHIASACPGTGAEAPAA
Description: competition; 25x and 50x competitor, UV-cross-linked EMSA; EMSA: 15 mM HEPES pH 7.4, 40 mM KCl, 5 mM MgCl2, 5% glycerol, 0.5 pmol probe in 20 µl, room temperature 20 min, then UV cross-link on ice 10 min. Conditions: protein: recombinant; tags: His (pET14b, Ni-NTA); label: none; no G4. For orientation: Mobility shift assays separate free from complexed probe on a gel.

Series [2] addresses T2, rZnf9 (Cryptococcus neoformans (H99), UniProt J9VQH8 1-184).
T2 sequence: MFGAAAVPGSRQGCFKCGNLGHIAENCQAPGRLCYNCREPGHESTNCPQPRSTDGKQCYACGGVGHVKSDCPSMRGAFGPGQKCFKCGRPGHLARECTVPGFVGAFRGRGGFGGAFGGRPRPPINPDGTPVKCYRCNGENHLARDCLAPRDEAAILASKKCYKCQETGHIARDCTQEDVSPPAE
Described as above. Conditions: protein: recombinant; tags: His (pET14b, Ni-NTA); label: none; no G4.

For series [3], the target named is T1, rGis2. The series is described as follows: UV-cross-linked EMSA; 5 mM Mg2+; EMSA: 15 mM HEPES pH 7.4, 40 mM KCl, 5 mM MgCl2, 5% glycerol, 0.5 pmol probe in 20 µl, room temperature 20 min, then UV cross-link on ice 10 min. The settings on record: protein: recombinant; tags: His (pET14b, Ni-NTA); label: 5'-TYE705; putative intramolecular G4.
Series [4] concerns the target T2, rZnf9. Described as above. The settings on record: protein: recombinant; tags: His (pET14b, Ni-NTA); label: 5'-TYE705; putative intramolecular G4.

As for UGCAGUGGAGUUGGAGUGAAACCAAACCGUUGGGCAGUGGGCCCGUGGAU (ssRNA) [mt competitor (cons mt)], the binding result with rGis2 [1] and with rZnf9 [2] was “no binding” each time.

For the molecule UGCAGUGGAGUUGGAGUGGGGAUGGGAUGUUGGGCAGUGGGCCCGUGGAU (structured_RNA) [TYE705-RPL2-3'UTR], the binding result with rGis2 [3] and in the series with rZnf9 [4] was “binds” each time.
